Holding throughout (test): pull-down
One assay has as its target 6 × His-tagged FER–CD (Arabidopsis thaliana, UniProt Q9SCZ4 469-895).
Assay [1] concerns the target T1, FER^K565R–CD–His (kinase dead form) (Arabidopsis thaliana, UniProt Q9SCZ4 469-895, K565R).
For assay [2], the target named is T1, FER^K565R–CD–His (kinase dead form). The source holds these as a separate data set.
Assay [3] deals with FER–CD (+ ATP) treated with CIP (Arabidopsis thaliana, UniProt Q9SCZ4 469-895).

Numbering of substitutions follows the chain as printed. Read-outs that look alike come from different tables or passages of the source.

Sequence of 6 × His-tagged FER–CD (Q9SCZ4 469-895): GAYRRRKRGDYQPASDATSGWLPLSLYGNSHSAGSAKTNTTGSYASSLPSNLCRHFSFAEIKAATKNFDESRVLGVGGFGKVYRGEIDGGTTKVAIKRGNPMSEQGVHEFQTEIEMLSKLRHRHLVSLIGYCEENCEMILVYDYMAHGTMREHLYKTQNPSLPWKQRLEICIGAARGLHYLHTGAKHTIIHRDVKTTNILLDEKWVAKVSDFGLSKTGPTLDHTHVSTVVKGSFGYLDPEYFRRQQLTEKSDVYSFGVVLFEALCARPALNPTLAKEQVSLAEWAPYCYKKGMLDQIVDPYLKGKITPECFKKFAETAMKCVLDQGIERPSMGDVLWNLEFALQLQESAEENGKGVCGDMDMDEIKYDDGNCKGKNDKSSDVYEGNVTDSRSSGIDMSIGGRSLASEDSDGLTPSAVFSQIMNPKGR
T1 sequence (Q9SCZ4 469-895 K565R): as the sequence (Q9SCZ4 469-895) above, with K97R counted along it
Sequence of FER–CD (+ ATP) treated with CIP (Q9SCZ4 469-895): as the sequence (Q9SCZ4 469-895) above

B1: GST–CAR5 (natural protein)
chain: MIVSFLYFSSLFPTSLRKINLVAGEKHKDRRMKPSLMDSLLGLLRIRIKRGVNLAVRDLNSSDPYVVVKMAKQKLKTRVIYKNVNPEWNEDLTLSVSDPNLTVLLTVYDYDTFTKDDKMGDAEFGIKPFVNALKMHLHDLPSGTIVTTVQPSRDNCLAEESRVIWSDGKLVQDIVLRLRHVECGEVEAQLQWIDLPGKGL
For B1, the binding result with 6 × His-tagged FER–CD is given as “binds”.

B2: GST–CAR9 (natural protein)
chain: MEDKPLGILRVHVKRGINLAIRDATTSDPYVVITLANQKLKTRVINNNCNPVWNEQLTLSIKDVNDPIRLTVFDKDRFSGDDKMGDAEIDFRPFLEAHQMELDFQKLPNGCAIKRIRPGRTNCLAEESSITWSNGKIMQEMILRLKNVECGEVELMLEWTDGPGCKGLGREGSKKTPWMPTKRLD
Regarding B2, the binding result (in the assay with 6 × His-tagged FER–CD; in assay [1]) was “binds” throughout.

B3: GST–CAR6 (natural protein)
chain: MEKTEEEVEMKELVGLVRILVKRGIDLARRDALSSDPFVVITMGPQKLKSFTVKNNCNPEWNEELTLAIEDPNEPVKLMVYDKDTFTADDKMGDAQIDMKPFLDVHKLGLKELPHGKELKRIVPTRDNCLSEDSIIVSDNGKIVQDMILLLKNVECGKVEIQLEWLKNPGGSGL
As to B3, the binding result with 6 × His-tagged FER–CD is “binds”.

B4: GST–CAR9^3M (natural protein)
chain: B2 chain with T26A, S27A, Y30F
Turning to B4, the binding result in assay [2] and in assay [3] was “binds” throughout.

B5: GST–CAR10 (natural protein)
chain: MDQKPLGLLTIHVKRGINLAIRDHRSSDPYIVLNVADQTLKTRVVKKNCNPVWNEEMTVAIKDPNVPIRLTVFDWDKFTGDDKMGDANIDIQPYLEALKMGMELLRLPNGCAIKRVQPSRHNCLSDESSIVWNNGKITQDLILRLNNVECGEIEIMLEWHEGAGCRGITSSSKGGGSSST
In the case of B5, the binding result with 6 × His-tagged FER–CD is “binds”.

The record behind these values is paper doi:10.1101/2021.10.13.464316 (bioRxiv, 2021).
